Laboratory results taken from patent US20090081211A1 (published 2009).

Biological target: human C3b (UniProt P01024 23-667; P01024 749-1663)
Test: SPR

Chain of human C3b (P01024 other isoform, or with tags, fused parts or gaps, chain 1 of 2): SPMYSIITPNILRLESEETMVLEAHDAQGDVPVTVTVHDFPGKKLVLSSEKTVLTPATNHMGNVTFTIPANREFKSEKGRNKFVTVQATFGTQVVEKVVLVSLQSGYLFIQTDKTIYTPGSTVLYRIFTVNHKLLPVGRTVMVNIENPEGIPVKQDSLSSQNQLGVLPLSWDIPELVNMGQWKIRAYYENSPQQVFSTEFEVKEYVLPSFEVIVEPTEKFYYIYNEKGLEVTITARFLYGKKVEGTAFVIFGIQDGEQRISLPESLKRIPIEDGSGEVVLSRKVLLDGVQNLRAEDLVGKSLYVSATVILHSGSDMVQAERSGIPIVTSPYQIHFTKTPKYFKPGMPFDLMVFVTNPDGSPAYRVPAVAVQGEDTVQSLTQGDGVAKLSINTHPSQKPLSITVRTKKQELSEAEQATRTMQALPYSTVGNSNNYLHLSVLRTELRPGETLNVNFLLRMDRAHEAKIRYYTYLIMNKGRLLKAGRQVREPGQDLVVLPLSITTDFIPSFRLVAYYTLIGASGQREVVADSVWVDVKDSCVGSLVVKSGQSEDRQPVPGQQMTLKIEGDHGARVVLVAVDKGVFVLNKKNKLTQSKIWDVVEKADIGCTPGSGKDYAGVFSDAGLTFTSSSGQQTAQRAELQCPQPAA
Chain of human C3b (P01024 other isoform, or with tags, fused parts or gaps, chain 2 of 2): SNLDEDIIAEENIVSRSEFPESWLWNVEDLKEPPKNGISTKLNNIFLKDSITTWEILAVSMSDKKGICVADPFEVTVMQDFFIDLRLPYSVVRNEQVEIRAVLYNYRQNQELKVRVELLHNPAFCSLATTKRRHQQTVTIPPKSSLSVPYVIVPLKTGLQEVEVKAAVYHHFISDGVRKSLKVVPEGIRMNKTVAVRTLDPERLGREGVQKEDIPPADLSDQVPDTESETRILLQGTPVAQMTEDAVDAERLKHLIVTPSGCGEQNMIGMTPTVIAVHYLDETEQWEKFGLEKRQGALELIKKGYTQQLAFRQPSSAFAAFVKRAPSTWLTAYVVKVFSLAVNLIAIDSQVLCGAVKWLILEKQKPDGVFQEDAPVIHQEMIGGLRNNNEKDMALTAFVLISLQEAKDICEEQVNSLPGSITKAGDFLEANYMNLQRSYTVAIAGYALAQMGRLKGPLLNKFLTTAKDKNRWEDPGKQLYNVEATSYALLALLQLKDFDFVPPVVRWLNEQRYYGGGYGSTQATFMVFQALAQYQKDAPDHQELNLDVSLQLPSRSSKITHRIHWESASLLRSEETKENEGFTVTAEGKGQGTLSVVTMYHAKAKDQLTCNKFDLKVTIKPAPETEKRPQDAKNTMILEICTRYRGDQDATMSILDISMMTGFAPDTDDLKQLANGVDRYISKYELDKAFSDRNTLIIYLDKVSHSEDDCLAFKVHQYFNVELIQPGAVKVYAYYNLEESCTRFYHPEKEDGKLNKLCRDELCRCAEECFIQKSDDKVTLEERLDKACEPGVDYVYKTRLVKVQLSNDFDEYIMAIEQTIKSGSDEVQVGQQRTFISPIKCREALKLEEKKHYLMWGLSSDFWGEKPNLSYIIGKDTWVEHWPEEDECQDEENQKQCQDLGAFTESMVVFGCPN

B1: antibody YW144.2.43.S77 Fab fragment (Fab, V domains shown)
VH: EVQLVESGGGLVQPGGSLRLSCAASGFSFTSSSVSWVRQAPGKGLEWVGLIYPYNGFNYYADSVKGRFTISADTSKNTAYLQMNSLRAEDTAVYYCARNALYGSGGYYAMDYWGQGTLVTVSS
VL: DIQMTQSPSSLSASVGDRVTITCRASQDVSTAVAWYQQKPGKAPKLLIYSASFLYSGVPSRFSGSGSGTDFTLTISSLQPEDFATYYCQQSYATLPTFEQGTKVEIK
Q: How did the Kd turn out when B1 was run?
A: 6.47 nM
